{
  "source": "paper PMC6494084",
  "assay_in_all_cases": "X-ray crystallography",
  "key": {"[1]": {"biological_target": "T1, DNA polymerase beta (pol β), wild-type (human, UniProt P06746 1-335)"}, "[2]": {"biological_target": "T1, DNA polymerase beta (pol β), wild-type", "remark": "listed apart in the source"}, "[3]": {"biological_target": "T1, DNA polymerase beta (pol β), wild-type", "remark": "listed apart in the source"}},
  "note": "Like-named read-outs stand apart in the source and are kept apart here.",
  "data": [
    {"binder": "1-nt gapped DNA, templating C (dsDNA, 5'-phosphate on downstream strand) DNA 1: CCGACCGCGCATCAGC DNA 2: GCTGATGCGC DNA 3: GTCGC", "values": [
      {"measurement": "binding result", "setting": "[1]", "value": "binds"}
    ]},
    {"binder": "1-nt gapped DNA, templating G (dsDNA, 5'-phosphate on downstream strand) DNA 1: CCGACGGCGCATCAGC DNA 2: GCTGATGCGC DNA 3: GTCGC", "values": [
      {"measurement": "binding result", "setting": "[2]", "value": "binds"}
    ]},
    {"binder": "1-nt gapped DNA, templating A (dsDNA, 5'-phosphate on downstream strand) DNA 1: CCGACAGCGCATCAGC DNA 2: GCTGATGCGC DNA 3: GTCGC", "values": [
      {"measurement": "binding result", "setting": "[3]", "value": "binds"}
    ]}
  ]
}
